The values that follow come from the DeepSol protein solubility set.

The nature of the series: soluble on expression in E. coli; label from the status in PepcDB or PDB records.
Consider “MFSSAVRALCRTVPTVATRQLSTSRALLSLRPLGPKNTVPAFKGTAVVDGDFKVISDQDYKGKWLVMFFYPLDFTFVCPTEIIAYGDRANEFRSLGAEVVACSCDSHFSHLAWVNTPRKDGGLGDMDIPLLADFNKKIADSFGVLDKESGLSYRGLFLIDPSGTVRHTTCNDLPVGRSVDETLRVLKAFQFSDKHGEVCPADWHEDSPTIKPGVATSKEYFNKVNK”, for which the “soluble on expression in E. coli” value was “not soluble”. For the sequence “GPGSMEDYKAKGNDAFKAKRYQEAIDWYTKAIELDPNGEASGALYSNRAGSWQNLNNFEKAAADSEQCIRLRPDWLKGYFRLGVAMESMVKYDEAQKAFQKALQLSPGNEEVMDKLHAINTKVRERNEKTKSQQCKTPEEAKQLGNSFFKDGKYDQAAEFYTRAIELQTEPVKEKAVYYTNRAACHQQTHMYSLMVDDCNAAIEIDPANVKAYLRRGIAYEGMEKWKLALEDYTKAQSISPGVAGASQGILRCQRVLRS”, the “soluble on expression in E. coli” value is on record as “soluble”. Consider “MGSDKIHHHHHHMTGRQFDIEPLMDEINKSLKQEVNYLTEAQNTDLVKRTLTADHYVVPKVYHDYTTETVLTQSFETGLSVNQWIRSNPSRSDIQNFSQLVIQLMIDEMLLTGVVQTDPNYANFLYRPDSRQLVLLDFGATWTYSTEFRHDIHKLSMALLSGEIDKLMVGIYTRGYLDTRESDETKAQLREVLRMIGDISANLPQPVALQVDVAHDEIRAAAHVMGRGIRHTTLHKDLVLIGRKLTGMLLLLKEINAIVDFNEVRAHISAIKV”, for which the “soluble on expression in E. coli” value is “not soluble”. Next, “SGSELIGRLAPRLGLAEPDMLRKAEEYLRLSRVKCVGLSARTTETSSAVMCLDLAASWMKCPLDRAYLIKLSGLNKETYQSCLKSFECLLGLNSNIGIRDLAVQFSCIEAVNMASKILKSYESSLPQTQQVDLDLSRPLFTSAALLSACKILKLKVDKNKMVATSGVKKAIFDRLCKQLEKIGQQVDREPGDVATPPRKRKKIVVEAPAKEMEKVEEMPHKPQKDEDLTQDYEEWKRKILENAASAQKATAE”: “soluble”; “MKYRITTWLAAALMLSSLHATAASLSDIQVSNGDQQARITLSFVGEPEYSFTPQGKRLVALDIKQTGVLQGLPLQFSGSNLVKSIRAGTPQDTQTLRLLVDLTEDGKTRAVKQQNGANYTVVFTINAEAPPPPVVVKRADPPPVMPSRTTTPGRNPFSSSGHERQTVMTSSQPAMTNNQTVTRPAARTVSADDKVIIAIDAGHGGQDPGAIGPNGTKEKNVTIAIARKLRALLNADPQFKPVLTRDGDYFISVMGRSEVARKQNANFLVSIHADAAPNRDATGASVWVLSNRRANSEMAGWLEQHEKQSELLGGAGDVLANSQADPYLSQAVLDLQFGHSQRVGYDVATNVLSQLQRIGNLHKRRPEHASLGVLRSPDIPSILVETGFISNNGEERLLGSDDYQEQIAEAIYNGLRNYFMQHPLQSAPRGEAAQTASAAAPGGMLIN”: “not soluble”; “MGSDKIHHHHHHMETITIDEKTLYNLTQPSEVIEELTHLNGNLTLVPNILSEDALLNKSVKEIEKIALEEADKTSPKHVRGKKIRRKGYAKYRFLKGFKIMLKGREDIYKLERISVELPVLYSDKGRVKTQVEERLLREEKVFKALMTVYSVLGGKLNAKLWMLEIQASGDFKYVIVDGKYVKLKGGRGSFSAIGVTEEGKRAVLDITLSVEKDVMSYWRLLVEVWKKYSFVLVVVDGTKALDKISLAELQVRRQGCLVHLKRNATKEEREALNVIFSAESGEIKPETCPRLLSYLSTPKELWRWLKSNNLIESFNSLLERRRFGSFHSPWRILQIARTIANNYNLSVVFHQFY”: “not soluble”.
